The values below come from patent US20170073386A1 (AstraZeneca / MedImmune, published 2017).

Assay [1] has as its target T1, human GITR expressed on cells (human, UniProt Q9Y5U5 26-241).
T1 sequence: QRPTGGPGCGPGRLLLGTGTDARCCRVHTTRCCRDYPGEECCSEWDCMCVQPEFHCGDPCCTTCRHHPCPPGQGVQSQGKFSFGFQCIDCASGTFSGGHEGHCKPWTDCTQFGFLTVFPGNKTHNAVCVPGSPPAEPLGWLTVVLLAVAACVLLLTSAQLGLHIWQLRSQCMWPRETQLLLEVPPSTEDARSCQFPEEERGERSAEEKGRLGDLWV
Briefly: cell-based or functional assay.

The target in assay [2] is T2, human GITR-Fc (human, UniProt Q9Y5U5 26-162, conjugated with europium cryptate in the HTRF assays).
T2 construct: also called hGITR-Fc; hGITRFc; not shown: Fc domain of hIgG1
T2 sequence: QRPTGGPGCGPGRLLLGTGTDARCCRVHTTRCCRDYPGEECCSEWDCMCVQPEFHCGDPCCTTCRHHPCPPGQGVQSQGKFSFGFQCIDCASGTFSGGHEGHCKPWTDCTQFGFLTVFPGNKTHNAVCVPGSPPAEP
In words: HTRF competition; competitor GITRL-HA on GITR-Fc. On the procedure:
(§1) The hexameric GITRL FP molecules were titrated into an HTRF assay in which binding of GITRL-HA (hemagglutinin tag) to GITR-Fc was measured. The human GITR Fc was conjugated with europium cryptate and an anti-HA antibody conjugated with XL665 was used to detect the GITRL-HA protein. IC₅₀ values were determined by curve fitting the analyzed data to a four parameter logistic equation with Prism 5.01 software (GraphPad).
The effect of a hexameric GITRL IgG1 FP having the monomeric GITRL IgG1 FP subunit sequence of SEQ ID NO: 6 on human GITRL binding to human GITR was determined using a Homogeneous Time Resolved Fluorescence (HTRF) assay. The GITRL IgG1 FP was titrated into an HTRF assay in which binding of GITRL-HA (hemagglutinin tag) to GITR-Fc was measured. The human GITR-Fc was conjugated with europium cryptate and an anti-HA antibody conjugated with XL665 was used to detect the GITRL-HA protein. IC₅₀ values were determined by curve fitting the analyzed data to a four parameter logistic equation with Prism 6.0x software (GraphPad).

The target of assay [3] is T2, human GITR-Fc. Briefly: HTRF competition; competitor GITRL-HA on GITR-Fc. How it is done:
The effect of the hexameric GITRL FP molecules on human GITRL binding to human GITR was determined using a Homogeneous Time Resolved Fluorescence (HTRF) assay.
as §1
The source holds these as a separate data set. In general terms: TR-FRET usually uses a lanthanide donor and a delayed reading to cut background.

Assay [4] addresses T3, recombinant mouse GITR-Fc (mouse, UniProt O35714 20-153, limits assumed).
T3 construct: Bought reagent; construct not described; not shown: Fc
T3 sequence (looked up): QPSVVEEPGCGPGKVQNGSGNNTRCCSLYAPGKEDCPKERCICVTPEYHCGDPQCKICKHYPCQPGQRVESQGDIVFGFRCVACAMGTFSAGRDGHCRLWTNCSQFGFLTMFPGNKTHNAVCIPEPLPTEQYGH
Briefly: ELISA, coated mouse GITR-Fc, HRP anti-mouse Fc. How it is done: (§2) Recombinant mouse GITR-Fc and OX40-Fc (R&D Systems) glycoproteins were coated overnight at 1 μg/mL in PBS onto 96-well plates (Greiner). Plates were washed with PBST (PBS+0.01% Tween-20), blocked for 1 hour at room temperature with PBS containing 1% (w/v) BSA, and washed in PBST again. Twenty-five microlitres of 1 μg/mL mouse GITRL or OX40L FPs diluted in assay buffer [PBS+1% bovine serum albumin (BSA)] was added to wells, and plates were incubated for 2 hours at room temperature. After 3 washes, 25 μL of 1 μg/mL horseradish peroxidase-conjugated anti-mouse Fc antibody (Sigma) diluted in assay buffer was added to each well, and plates were incubated for 1 hour. After incubation, plates were washed 3 times in PBST, 25 μL of tetramethylbenzidine substrate solution (KPL) was added to each well, and plates incubated for 5 minutes. After incubation 15 μL of 0.5 M sulphuric acid stop solution was added to all wells. The optical density at 450 nm was measured using an EnVision plate reader (PerkinElmer).

The target of assay [5] is T4, recombinant mouse OX40-Fc (mouse, UniProt P47741 20-211, limits assumed).
T4 construct: Bought reagent; construct not described; not shown: Fc
T4 sequence (looked up): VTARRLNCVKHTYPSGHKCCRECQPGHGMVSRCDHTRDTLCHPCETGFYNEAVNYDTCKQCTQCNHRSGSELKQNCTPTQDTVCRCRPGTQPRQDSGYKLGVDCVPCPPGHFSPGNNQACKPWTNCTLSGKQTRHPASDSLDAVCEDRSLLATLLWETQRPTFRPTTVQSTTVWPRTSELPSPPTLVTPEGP
Briefly: ELISA, coated mouse OX40-Fc, FP at 1 ug/mL, HRP anti-mouse Fc. On the procedure:
as §2
(In general: ELISA stands for enzyme-linked immunosorbent assay.)

B1: hexameric GITRL FP (Langerin wt) (Fc fusion, not shown: a dimerising Fc or GST; small tags and cut ends)
chain (part 1 of 2): ASALNTKIRALQGSLENMSKLLKRQNDILQVVS
chain (part 2 of 2): LQLETAKEPCMAKFGPLPSKWQMASSEPPCVNKVSDWKLEILQNGLYLIYGQVAPNANYNDVAPFEVRLYKNKDMIQTLTNKSKIQNVGGTYELHVGDTIDLIFNSEHQVLKNNTYWGIILLANPQFIS
As a reminder, the IC50 is the concentration at which inhibition is half-maximal. Low values mean inhibition by little substance, high ones a need for much substance. Consider B1, for which the “EC50 (nM), human GITR transfected NF-κB luciferase gene reporter cell line” value in assay [1] came to 1.54 nM. The “fold lower potency than GITRL FP (GCN4)” value with human GITR-Fc [2] was found to be 8 fold. In the assay with human GITR-Fc [3], this molecule gave an IC50 of 8.05 nM.

B2: mOX40L-FP mIgG1 (Fc fusion)
chain: VPRDCGCKPCICTVPEVSSVFIFPPKPKDVLTITLTPKVTCVVVDISKDDPEVQFSWFVDDVEVHTAQTQPREEQFNSTFRSVSELPIMHQDWLNGKEFKCRVNSAAFPAPIEKTISKTKGRPKAPQVYTIPPPKEQMAKDKVSLTCMITDFFPEDITVEWQWNGQPAENYKNTQPIMDTDGSYFVYSKLNVQKSNWEAGNTFTCSVLHEGLHNHHTEKSLSHSPGKRLDQDKIEALSNKVQQLERSIGLKDLAMADLEQKVSELEVSTSSPAKDPPIQRLRGAVTRCEDGQLFISSYKNEYQTMEVQNNSVVIKCDGLYIIYLKGSFFQEVKIDLHFREDHNPISIPMLNDGRRIVFTVVASLAFKDKVYLTVNAPDTLCEHLQINDGELIVVQLTPGYCAPEGSYHSTVNQVPL
notes: also called murine OX40L FP mIgG1; Mouse OX40L FP mIgG1
Take B2: the binding result is reported as “no binding” in assay [4] and “binds” in assay [5].
